# Data from patent US20220289845A1.
# Legend:
# cynomolgus CD47 [1] = assay: SPR; assay 2
# human CD47 [2] = target: human CD47 (UniProt Q08722); assay: SPR; assay 2
# cynomolgus CD47 [3] = assay: SPR; average
# human CD47 [4] = target: human CD47 (UniProt Q08722); assay: SPR; average
# cynomolgus CD47 [5] = assay: SPR; assay 1
# human CD47 [6] = target: human CD47 (UniProt Q08722); assay: SPR; assay 1
# Sequence of human CD47 (Q08722 19-142): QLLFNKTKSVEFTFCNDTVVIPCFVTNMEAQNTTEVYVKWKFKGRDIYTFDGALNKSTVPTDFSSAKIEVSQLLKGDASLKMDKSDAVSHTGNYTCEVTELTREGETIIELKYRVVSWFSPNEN
# Sequence of cynomolgus CD47 (Q08722 other isoform, or with tags, fused parts or gaps): as the sequence (Q08722 19-142) above, with V59A, T61A, D62N counted along it
substance,measurement,setting,value
Hu5F9-G4,Kd,cynomolgus CD47 [1],7.24 pM
same,Kd,human CD47 [2],2.02 pM
same,Kd,cynomolgus CD47 [3],10 pM
same,Kd,human CD47 [4],8 pM
same,Kd,cynomolgus CD47 [5],12.1 pM
same,Kd,human CD47 [6],14.3 pM
